Results taken from patent US20150183839A1, “SOYBEAN NODULATION REGULATORY PEPTIDES AND METHODS OF USE” (priority 2010, published 2015).
“Also recorded” adds a separate entry of the source.

Assays:
[1] = tested on: CLE30, CLE60 and CLE80 gene expression in soybean root; test: RT-qPCR of CLE gene expression in soybean roots after nitrogen source treatment; assay type: in vivo, Glycine max; conditions: for expression of CLE30 and CLE80 in roots / CLE60 expression in roots: 10 mM for two weeks; for expression of CLE30 and CLE80 in roots: relative to KCl control; for CLE60 expression in roots: relative to control
Protocol: FIG. 15. To test if CLE60 (GmNIC1) is induced by alternative nitrogen sources we treated soybeans with 10 mM solutions of the following chemicals for two weeks prior to harvesting root tissue to analyse gene expression: Ammonium Chloride (NH4Cl), Potassium Nitrate (KNO3) and Potassium Chloride control (KCl).
(§1) Soybean (Glycine max) lines used include the wild type Williams and its isogenic supernodulating nark mutant lines, nod4 and nod3-7 and the wild type Bragg and its isogenic hypernodulating nark mutant line, nts1116. Plants were grown in controlled glasshouse conditions (28° C./26° C. day/night, 16 hour day) in autoclaved pots and vermiculite where sterile growing conditions were required. Seeds requiring sterilisation were treated with 70% ethanol, 3% H2O2 for 1 min, followed by several rinses with water. Plants were watered as required with a modified nutrient solution lacking nitrogen (Herridge, 1982). Plants were inoculated with approximately OD600 0.01 Bradyrhizobium japonicum CB1809 or the corresponding NF mutant nodU grown in yeast-mannitol broth (YMB) at 28° for two days. For nitrate treatments, plants were watered with the indicated solutions of KNO3 every two days. For grafting experiments, reciprocal grafting was carried out 8 d after sowing and the graft unions were allowed to recover for 6 d before B. japonicum inoculation. Nodulation was scored three weeks after inoculation.
For gene expression analyses, tissue was snap frozen and homogenized in liquid nitrogen using a mortar and pestle. RNA was extracted using TRIzol reagent according to the manufacturer's instructions (Invitrogen). DNAse treatment (Fermentas, Ontario) was performed on 1 μg of RNA in the presence of MgCL2. cDNA was synthesised with SuperScript III (Invitrogen) from 0.5 μg DNAse treated RNA. RT-qPCR was conducted using an ABI 7900HT cycler in 384 well plates with SYBR green fluorescence detection. All reactions were performed in duplicate for at least three biological replicates using intron-spanning primers where possible and a target amplicon of approximately 100 bp (full primer sequences are included in Table 2). Gene expression values were calculated relative to ATP synthase after normalisation for PCR efficiency and plot correlation (R2) values of each primer pair as determined by LinRegPCR 7.5 (Ramakers et al., 2003).
In a preliminary study to determine if nitrate can induce the expression of the soybean CLE genes, root tissue was harvested after treatment with either 0 mM (water control) or 10 mM KNO3 for two weeks. […] A more thorough study to identify the induction of CLE60 expression by nitrate was subsequently performed using, root tissue harvested at 0, 8 or 24 h after the commencement of the above treatments.
Soybean plants were treated with either 0, 2, 5, 10 or 15 mM KNO3 for 2 days prior to, and for 2 weeks following, rhizobia inoculation. The treated plants were then harvested simultaneously for RT-qPCR and nodule count studies.

[2] = tested on: soybean nodulation; test: Nodule numbers of soybean plants treated with KNO3 (incl. grafted plants); assay type: in vivo, Glycine max
Protocol: as §1
Soybean plants were treated with either 0, 2, 5, 10 or 15 mM KNO3 for 2 days prior to, and for 2 weeks following, rhizobia inoculation. The treated plants were then harvested simultaneously for RT-qPCR and nodule count studies. […]

[3] = tested on: Medicago truncatula nodulation; conditions: cited from earlier work
[4] = tested on: soybean nodulation; test: Over-expression of CLE genes in transgenic soybean hairy roots, nodule number (Example 1); assay type: in vivo, Glycine max; conditions: for NARK/SUNN/HAR1 dependent inhibition / Systemic activity: Glycine max; for nodulation (nodule number) on over-expression: vs vector-only control
Protocol: as §1
The full length CDS of CLE30, CLE60 and CLE80 was directionally cloned into the pKANNIBAL vector for expression of RNAi constructs (Wesley et al., 2001). Pfu polymerase (Stratagene, La Jolla, Calif.) was used to amplify PCR products incorporating restriction nuclease sites from cDNA samples shown to express the target gene. XhoI/EcoRI (for) and KpnI (rev) restriction sites were included in the primer sequences depending on internal restriction sites of each gene (full primer sequences are included in Table 2). Likely clones were confirmed by direct DNA sequencing and capillary separation. Constructs were sub-cloned into p15SRK2 or pM1KCK1 integration vectors (A. Kereszt, unpublished) as a NotI fragment before tri-parental mating to introduce the constructs into Agrobacterium rhizogenes K599. For transgenic root verification in the CLE60 over-expression experiments the DsRed reporter was subcloned into pM1KCK1 from pHairyRed, which is a modified version of pCAMBIA (M-H Lin, P M Gresshoff, B J Ferguson, unpublished). Tri-parental mating was used to introduce DsRed into A. rhizogenes K599 carrying the CLE60 construct. A. rhizogenes were subsequently used for the induction of transgenic soybean hairy roots according to Kereszt et al (2007).
To determine if the soybean CLE peptides regulate nodulation in a NARK-dependent manner, a reverse-genetics approach using a hairy-root transformation system was used. Over-expression of a systemic Q signal would be expected to inhibit nodulation, even in non-transformed roots. To test this, the complete CDS of CLE30, CLE60 or CLE80 was cloned into the pKANNIBAL vector for the expression of efficient RNAi constructs (Wesley et al., 2001). However, to generate over-expressing constructs, the antisense construct was omitted and the Pdk intron of pKANNIBAL was left intact. Previous studies have shown the inclusion of an intron can lead to higher and more consistent expression levels in transgenic plants (Norris et al., 1993).
Tri-parental mating was used to integrate the constructs into Agrobacterium rhizogenes K599 which induces the formation of transgenic hairy roots in soybean (Kereszt et al., 2007).

[5] = tested on: G. max nodulation; test: Overexpression of GmRIC1 in hairy roots of G. max, nodules counted (Example 2); assay type: in vivo, Glycine max; conditions: vs empty vector; for nodulation on overexpression: G. max WT (Williams)
Protocol: (§2) Transformation was done using the hairy root method. Agrobacterium rhizogenes containing a vector with the RIC1 gene (CLE30) and 35s promoter was injected into the stems of young plants. Once transgenic ‘hairy roots’ began growing from the stems the primary roots were removed and the plants with the transgenic roots were replanted and inoculated with the appropriate rhizobia strain.
(§3) All plants were grown in and in 30 well seed trays of grade 3 vermiculite. G. soja seeds were scarified and soaked in MQ H2O before planting. All plants were grown in growth cabinets under 16 h day and 8 h night conditions. P. vulgaris and G. max were grown at 28° C. G. soja were grown at 24° C. All plants were fertilised with a no nitrogen fertiliser and B&D solution (Broughton & Dilworth 1971).
(§4) A. rhizogenes K599 with either p15SRK2::GmRIC1 ox or p15SRK2 were grown on LB media (10 g/L Tryptone, 5 g/L Yeast extract, 10 g/L NaCl) for 2 days at 28° C. The bacteria were harvested by scraping it from the agar plate. The harvested bacteria were suspended in 3 mL MQ H2O, ensuring no lumps remained.
(§5) When all plants had unfolded cotyledons they were injected at the hypocotyl as close to the junction of the cotyledons as possible with the A. rhizogenes solutions (Kereszt et al, 2007; Estrada-Navarrete, 2006). Half of each of the WT and mutant lines received A. rhizogenes p15SRK2+GmRIC1 OX and the other half of the plants received A. rhizogenes p15SRK2; Totalling 4 treatment groups.
(§6) The infection technique was the same for all species using A. rhizogenes K599. To increase the likelihood of the K599 producing hairy roots, the A. rhizogenes was inoculated with 1 mL 200 μM acetosyringone one hour prior to harvesting the bacteria. After infection all seed trays were misted with H2O, covered and sealed to ensure high humidity.
Once root tips were visible at the point of infection, the primary roots of the plants were removed and the hairy roots were re-planted. Plants were left in the growth cabinets for one week to form an adequate root system. […] After 2-3 weeks plants were uprooted and the nodules counted.

[6] = tested on: G. soja nodulation; test: Overexpression of GmRIC1 in hairy roots of G. soja, nodules counted; assay type: in vivo, Glycine soja; conditions: WT G. soja, vs vector only
Protocol: as §2, §3
as §4, with “remained. […]” for “remained.”
Once root tips were visible at the point of infection, the primary roots of the plants were removed and the hairy roots were re-planted. […] After 2-3 weeks plants were uprooted and the nodules counted.

[7] = tested on: P. vulgaris nodulation; test: Overexpression of GmRIC1 in hairy roots of P. vulgaris, nodules counted; assay type: in vivo, Phaseolus vulgaris; conditions: vs vector only
Protocol: as §2, §3, §4, §5, §6
Once root tips were visible at the point of infection, the primary roots of the plants were removed and the hairy roots were re-planted. Plants were left in the growth cabinets for one week to form an adequate root system. The plants were subsequently transferred to the glasshouse and re-potted into larger pots. After re-potting plants were also inoculated with the appropriate strain of rhizobia for that particular species. Plants were watered and fertilised with B&D solution (Broughton & Dilworth 1971). After 2-3 weeks plants were uprooted and the nodules counted.

[8] = nod4 supernodulation nark mutant plants
[9] = wild-type (Williams) soybean, transgenic hairy roots

With `O=[N+]([O-])[O-].[K+]` [KNO3, Potassium Nitrate] the “CLE30 expression in roots” value ([1]; 10 mM KNO3 for two weeks vs 0 mM water control) was “unchanged”, the “expression of CLE30 and CLE80 in roots” value [1] was “not that of CLE80 or CLE30” and the “CLE60 expression in roots” value [1] was “significantly induced expression of CLE60”. The “KNO3 level at which CLE60 was significantly induced (as low as)” value ([1]; 2 days prior to and 2 weeks following rhizobia inoculation) was 2 mM, the “nodule numbers with KNO3 concentration” value ([2]; 0, 2, 5, 10 or 15 mM KNO3, 2 weeks after inoculation) was “reduced in an inverse manner” and the “nodule numbers of grafted plants” value ([2]; 5 mM or 10 mM KNO3, WT scion, wild-type rootstock compared to nod4 mutant rootstock) was “reduced significantly”.

For `Cl.N` [NH4Cl, Ammonium Chloride], the “expression of CLE30 and CLE80 in roots” value [1] was “did not affect expression” and the “CLE60 expression in roots” value [1] was “induced expression of CLE60”.

For “CLE12: Medicago truncatula CLE peptide reported to reduce nodulation (Mortier et al., 2010) (LEGGSNIDSQRLLHELMVDRIKQKRSRTDLEDKAVPGDRLSPGGPNHIHN; UniProt G7ZZZ3 32-81, looked up)”, the NARK/SUNN/HAR1 dependent inhibition [3] is given as “partial” and the Systemic activity [3] is given as “yes”.

In the case of “CLE13: Medicago truncatula CLE peptide reported to reduce nodulation (Mortier et al., 2010) (LRDHPLIHKNIDSRSLLQKLRIHISNHKQVRDISGDRLSPAGPDPQHNGRSPPRK; UniProt G7JV15 30-84, looked up)”, the NARK/SUNN/HAR1 dependent inhibition [3] is listed as “partial” and the Systemic activity [3] is listed as “yes”.

B1: CLE30: Glycine max CLAVATA3/ESR-related (CLE) protein, SEQ ID NO:5; rhizobia induced CLE, over-expressed in transgenic hairy roots (protein)
chain: MANATMATRVSILIALIILSTFFMTLQASNLHGHPFIRENNIADSHHFLHKYLDDLSKHIHVQDADDAPHKDGNTHRLAPEGPDPHHNFATPPRN
modifications: Glycine max
notes: rhizobia induced CLE, over-expressed in transgenic hairy roots
For B1, the NARK/SUNN/HAR1 dependent inhibition [4] was “yes”, the Systemic activity [4] was “yes” and the “nodulation (nodule number) on over-expression” value (“nodulation … on over-expression” for short) [4, 8] was “no reduction in the nodule numbers; also recorded: complete lack of nodule inhibition; also recorded: nodule numbers were not reduced”. For the same molecule, the “nodulation … on over-expression” value [4, 9] was “completely abolishes soybean nodulation; also recorded: completely eliminated nodulation; also recorded: eliminated nodulation completely; also recorded: nodules were eliminated”, the nodulation on overexpression [5] was “inhibits nodulation” and the nodulation on overexpression ([5]; listed as GmRIC1) was “completely inhibits nodulation”. The “nodule numbers on overexpression” value ([5]; G. max nod4 lacking functional NARK) was “nodule numbers were unchanged”, the nodulation on overexpression [6] was “inhibits nodulation” and the nodulation on overexpression ([6]; listed as GmRIC1) was “completely inhibited nodulation; also recorded: complete inhibition of nodulation”. The nodulation on overexpression ([7]; P. vulgaris R32 supernodulation (AON) mutant) was “no effect”, the nodulation on overexpression ([7]; P. vulgaris R32 supernodulation (AON) mutant, listed as GmRIC1) was “no significant effect” and the nodulation on overexpression ([7]; P. vulgaris WT cv. OAC RICO) was “inhibits nodulation”. The nodulation on overexpression ([7]; P. vulgaris WT cv. OAC RICO, listed as GmRIC1) was “inhibition of nodulation”.

B2: CLE80: Glycine max CLE protein, SEQ ID NO:7; rhizobia inoculation induced CLE (protein)
chain: MGNTSATLVPILALIMFSTFFMTLQARSLHGHNPLFAHKKVVDIQNFLHKSGIHLSKRVRIPFGDDLPLAPADRLAPGGPDPQHNVRAPPRKP
modifications: Glycine max
In the case of B2, the NARK/SUNN/HAR1 dependent inhibition [4] is reported as “yes”, the Systemic activity [4] is reported as “yes” and the “nodulation … on over-expression” value [4, 8] is reported as “no reduction in the nodule numbers; also recorded: complete lack of nodule inhibition; also recorded: nodule numbers were not reduced”. The “nodulation … on over-expression” value [4, 9] was “completely abolishes soybean nodulation; also recorded: completely eliminated nodulation; also recorded: eliminated nodulation completely; also recorded: nodules were eliminated”.

B3: CLE60: Glycine max CLE protein, SEQ ID NO:6; nitrate induced CLE acting locally in the root (protein)
chain: MLEALGEMANAKQVLCLILLVLLFSKLESRSLEAFIEGKKTLAKGCSRELIEKSQLLKASFAKATTRFTNPRVSKRLSPGGPDQKHH
modifications: Glycine max
notes: nitrate induced CLE acting locally in the root
For B3, the NARK/SUNN/HAR1 dependent inhibition [4] was “yes”, the Systemic activity [4] was “no” and the “nodulation … on over-expression” value [4, 8] was “no corresponding reduction in nodulation; also recorded: nodule numbers were not reduced”. The reduction in nodulation ([4]; over-expression, wild-type soybean) was about 50% and the “nodulation … on over-expression” value [4, 9] was “only partially reduces nodulation; also recorded: reduced nodulation by approximately half; also recorded: nodules were reduced or partially eliminated”.
